Laboratory results reported in patent US12139520B2 (priority 2020, dated 2024).
Numbered stars: 1 amine (or outer) side, 2 acyl side, 3 side chain; on linkers, the order of the positions; unused ones are H or OH. Bridge positions count the residues as written; N and C are the ends. Square brackets hold non-standard residues; d marks the D form. Side chains are listed from the residue outwards. Ends that are not written are not given here. * marks the point of attachment. C20 diacid = O=C(O)CCCCCCCCCCCCCCCCCCC(=O)*; γGlu = O=C(O)[C@H](CCC(=O)[*:2])N[*:1]; Hyp = O=C(O)[C@@H]1C[C@@H](O)CN1; AEEA = NCCOCCOCC(=O)O

T1: hAMY3R (human, UniProt P30988)
T1 sequence 1: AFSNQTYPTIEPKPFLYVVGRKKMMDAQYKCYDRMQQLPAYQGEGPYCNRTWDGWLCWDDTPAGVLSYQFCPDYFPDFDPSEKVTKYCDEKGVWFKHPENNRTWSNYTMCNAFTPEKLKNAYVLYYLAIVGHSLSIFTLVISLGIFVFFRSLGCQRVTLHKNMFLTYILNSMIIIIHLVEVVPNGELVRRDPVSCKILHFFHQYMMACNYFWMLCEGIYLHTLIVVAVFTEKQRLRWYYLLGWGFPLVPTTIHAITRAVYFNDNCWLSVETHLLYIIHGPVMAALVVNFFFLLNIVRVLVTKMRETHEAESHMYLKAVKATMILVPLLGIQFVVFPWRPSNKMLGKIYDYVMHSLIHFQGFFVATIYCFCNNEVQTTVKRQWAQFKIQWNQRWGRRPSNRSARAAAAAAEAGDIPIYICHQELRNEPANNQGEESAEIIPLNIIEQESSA
T1 sequence 2: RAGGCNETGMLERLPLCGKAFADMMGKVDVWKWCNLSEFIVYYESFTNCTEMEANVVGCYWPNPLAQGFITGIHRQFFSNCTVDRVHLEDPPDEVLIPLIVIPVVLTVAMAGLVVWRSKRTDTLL


Each binder was assayed against T1, hAMY3R (assay: cell-based or functional assay).

Binder	hAMY3R EC50 (cAMP) [nM]
{C20 diacid-γGlu}-GCRFGTCTVQRLAHFLYQFTDKDKDNVAPRTKVGPQGY-NH2 (disulfide 2-7 (inferred); ends not checked) [SEQ ID NO: 392]	0.113
{C20 diacid-γGlu}-KCNFATCTVQRLAHQIYQFTDKDKDNVAPRTEVGSNGY-NH2 (disulfide 2-7 (inferred); ends not checked) [SEQ ID NO: 370]	0.017
KCNTATCTVQRLAEQIYQFTDKDKDK([AEEA-AEEA-γGlu-C20 diacid])VAPPTNVGSNG[Hyp]-NH2 (disulfide 2-7 (inferred); not fully specified (N-terminus); ends not checked) [SEQ ID NO: 41]	0.01
{C20 diacid-γGlu}-GCRFGTCTVQRLAHFLYQFTDKDKDNVAPRTNIGPQGY-NH2 (disulfide 2-7 (inferred); ends not checked) [SEQ ID NO: 388]	0.043
{C20 diacid-γGlu}-GCRFGTCTVQRLANQIYQFTDKDKDNVAPRTNVGPQGY-NH2 (disulfide 2-7 (inferred); ends not checked) [SEQ ID NO: 372]	0.02
{C20 diacid-γGlu}-KCNFATCATQRLANFLVQFTDKDKDNVAPRSKIGPQGY-NH2 (disulfide 2-7 (inferred); ends not checked) [SEQ ID NO: 389]	0.045
{C20 diacid-γGlu}-KCNFATCTVQRLAHQIYQFTDKDKDNVAPRTKVGSNGY-NH2 (disulfide 2-7 (inferred); ends not checked) [SEQ ID NO: 378]	0.027
{C20 diacid-γGlu}-KCNTATCTVARLAHQIYQFTDKDKDNVAPPTNVGSNG[Hyp]-NH2 (disulfide 2-7 (inferred); ends not checked) [SEQ ID NO: 37]	0.01
GCRFGTCTVQRLAHQIYQFTDKDKDNVAPRTKISPNGY [SEQ ID NO: 371]	0.019
GCRFGTCTVQRLAHQIYQFTDKDKDNVAPRSNVGPNGY [SEQ ID NO: 373]	0.02
GCRFGTCTVQRLAHQIYQFTDKDKDNVAPRSNISPNGY [SEQ ID NO: 383]	0.034
GCRFGTCTVQRLAHQIYQFTDKDKDNVAPRSKVGPQGY [SEQ ID NO: 375]	0.022
GCRFGTCTVQRLAHQIYQFTDKDKDNVAPRSKVSPNGY [SEQ ID NO: 384]	0.036
GCRFGTCTVQRLAHQIYQFTDKDKDNVAPRTKVSPNGY [SEQ ID NO: 385]	0.036
{C20 diacid-γGlu}-RCNTATCTVQRLAHQIYQFTDKDKDNVAPPTNVGSNG[Hyp]-NH2 (disulfide 2-7 (inferred); ends not checked) [SEQ ID NO: 39]	0.01
KCNTATCTVQRLAEQIYQFTDKDKK([AEEA-AEEA-γGlu-C20 diacid])NVAPPTNVGSNG[Hyp]-NH2 (disulfide 2-7 (inferred); not fully specified (N-terminus); ends not checked) [SEQ ID NO: 40]	0.01
{C20 diacid-γGlu}-GCRFGTCTVQRLANFLYQFTDKDKDNVAPRTNVGPQGY-NH2 (disulfide 2-7 (inferred); ends not checked) [SEQ ID NO: 386]	0.039

Binder	hAMY3R EC50 (cAMP) [nM]
{C20 diacid-γGlu}-GCRFGTCTVQRLAHFLYQFTDKDKDNVAPRTKIGPQGY-NH2 (disulfide 2-7 (inferred); ends not checked) [SEQ ID NO: 390]	0.048
GCRFGTCTVQRLAHFLYQFTDKDKDNVAPRTNIGPQGY [SEQ ID NO: 364]	0.01
GCRFGTCTVQRLAHQIYQFTDKDKDNVAPRTKIGPQGY [SEQ ID NO: 391]	0.068
GCRFGTCTVQRLAHQIYQFTDKDKDNVAPRTNIGPQGY [SEQ ID NO: 379]	0.029
GCRFGTCTVQRLAHQIYQFTDKDKDNVAPRTKIGPNGY [SEQ ID NO: 367]	0.014
GCRFGTCTVQRLAHQIYQFTDKDKDNVAPRTNISPNGY [SEQ ID NO: 366]	0.013
GCRFGTCTVQRLAHQIYQFTDKDKDNVAPRSNIGPQGY [SEQ ID NO: 382]	0.034
GCRFGTCTVQRLAHQIYQFTDKDKDNVAPRSKIGPQGY [SEQ ID NO: 387]	0.04
GCRFGTCTVQRLAHFLYQFTDKDKDNVAPRTKIGSNGY [SEQ ID NO: 376]	0.022
GCRFGTCTVQRLAHFLYQFTDKDKDNVAPRTKIGPQGY [SEQ ID NO: 365]	0.012
GCRFGTCTVQRLAHQIYQFTDKDKDNVAPRSNVGPQGY [SEQ ID NO: 374]	0.021
GCRFGTCTVQRLAHQIYQFTDKDKDNVAPRTKVGPQGY [SEQ ID NO: 368]	0.015
GCRFGTCTVQRLAHQIYQFTDKDKDNVAPRTNIGPNGY [SEQ ID NO: 381]	0.032
GCRFGTCTVQRLAHFLYQFTDKDKDNVAPRTKVGPQGY [SEQ ID NO: 369]	0.017
GCRFATCTVQRLAHFLYQFTDKDKDNVAPRTKVGPQGY [SEQ ID NO: 377]	0.024
{C20 diacid-γGlu}-GCRFATCTVQRLAHQIYQFTDKDKDNVAPRTKVGPQGY-NH2 (disulfide 2-7 (inferred); ends not checked) [SEQ ID NO: 380]	0.031
{C20 diacid-γGlu}-KCNTATCTVNRLAHQIYQFTDKDKDNVAPPTNVGSNG[Hyp]-NH2 (disulfide 2-7 (inferred); ends not checked) [SEQ ID NO: 38]	0.01

Each binder was assayed against hAM1R (human, UniProt Q16602) (assay: cell-based or functional assay).

Binder	hAM1R EC50 (cAMP) [nM]
{C20 diacid-γGlu}-GCRFGTCTVQRLAHFLYQFTDKDKDNVAPRTKVGPQGY-NH2 (disulfide 2-7 (inferred); ends not checked) [SEQ ID NO: 392]	5.03
{C20 diacid-γGlu}-KCNFATCTVQRLAHQIYQFTDKDKDNVAPRTEVGSNGY-NH2 (disulfide 2-7 (inferred); ends not checked) [SEQ ID NO: 370]	10.3
KCNTATCTVQRLAEQIYQFTDKDKDK([AEEA-AEEA-γGlu-C20 diacid])VAPPTNVGSNG[Hyp]-NH2 (disulfide 2-7 (inferred); not fully specified (N-terminus); ends not checked) [SEQ ID NO: 41]	> 5000
{C20 diacid-γGlu}-GCRFGTCTVQRLAHFLYQFTDKDKDNVAPRTNIGPQGY-NH2 (disulfide 2-7 (inferred); ends not checked) [SEQ ID NO: 388]	4.01
{C20 diacid-γGlu}-GCRFGTCTVQRLANQIYQFTDKDKDNVAPRTNVGPQGY-NH2 (disulfide 2-7 (inferred); ends not checked) [SEQ ID NO: 372]	3.94
{C20 diacid-γGlu}-KCNFATCATQRLANFLVQFTDKDKDNVAPRSKIGPQGY-NH2 (disulfide 2-7 (inferred); ends not checked) [SEQ ID NO: 389]	1.04
{C20 diacid-γGlu}-KCNFATCTVQRLAHQIYQFTDKDKDNVAPRTKVGSNGY-NH2 (disulfide 2-7 (inferred); ends not checked) [SEQ ID NO: 378]	0.893
{C20 diacid-γGlu}-KCNTATCTVARLAHQIYQFTDKDKDNVAPPTNVGSNG[Hyp]-NH2 (disulfide 2-7 (inferred); ends not checked) [SEQ ID NO: 37]	> 5000
GCRFGTCTVQRLAHQIYQFTDKDKDNVAPRTKISPNGY [SEQ ID NO: 371]	3.03
GCRFGTCTVQRLAHQIYQFTDKDKDNVAPRSNVGPNGY [SEQ ID NO: 373]	7.71
GCRFGTCTVQRLAHQIYQFTDKDKDNVAPRSNISPNGY [SEQ ID NO: 383]	5.93
GCRFGTCTVQRLAHQIYQFTDKDKDNVAPRSKVGPQGY [SEQ ID NO: 375]	0.403
GCRFGTCTVQRLAHQIYQFTDKDKDNVAPRSKVSPNGY [SEQ ID NO: 384]	1.09
GCRFGTCTVQRLAHQIYQFTDKDKDNVAPRTKVSPNGY [SEQ ID NO: 385]	7
{C20 diacid-γGlu}-RCNTATCTVQRLAHQIYQFTDKDKDNVAPPTNVGSNG[Hyp]-NH2 (disulfide 2-7 (inferred); ends not checked) [SEQ ID NO: 39]	> 5000
KCNTATCTVQRLAEQIYQFTDKDKK([AEEA-AEEA-γGlu-C20 diacid])NVAPPTNVGSNG[Hyp]-NH2 (disulfide 2-7 (inferred); not fully specified (N-terminus); ends not checked) [SEQ ID NO: 40]	> 5000
{C20 diacid-γGlu}-GCRFGTCTVQRLANFLYQFTDKDKDNVAPRTNVGPQGY-NH2 (disulfide 2-7 (inferred); ends not checked) [SEQ ID NO: 386]	7.35

Binder	hAM1R EC50 (cAMP) [nM]
{C20 diacid-γGlu}-GCRFGTCTVQRLAHFLYQFTDKDKDNVAPRTKIGPQGY-NH2 (disulfide 2-7 (inferred); ends not checked) [SEQ ID NO: 390]	0.889
GCRFGTCTVQRLAHFLYQFTDKDKDNVAPRTNIGPQGY [SEQ ID NO: 364]	13.6
GCRFGTCTVQRLAHQIYQFTDKDKDNVAPRTKIGPQGY [SEQ ID NO: 391]	0.665
GCRFGTCTVQRLAHQIYQFTDKDKDNVAPRTNIGPQGY [SEQ ID NO: 379]	0.458
GCRFGTCTVQRLAHQIYQFTDKDKDNVAPRTKIGPNGY [SEQ ID NO: 367]	0.563
GCRFGTCTVQRLAHQIYQFTDKDKDNVAPRTNISPNGY [SEQ ID NO: 366]	12.1
GCRFGTCTVQRLAHQIYQFTDKDKDNVAPRSNIGPQGY [SEQ ID NO: 382]	5.12
GCRFGTCTVQRLAHQIYQFTDKDKDNVAPRSKIGPQGY [SEQ ID NO: 387]	0.992
GCRFGTCTVQRLAHFLYQFTDKDKDNVAPRTKIGSNGY [SEQ ID NO: 376]	12
GCRFGTCTVQRLAHFLYQFTDKDKDNVAPRTKIGPQGY [SEQ ID NO: 365]	1.21
GCRFGTCTVQRLAHQIYQFTDKDKDNVAPRSNVGPQGY [SEQ ID NO: 374]	12
GCRFGTCTVQRLAHQIYQFTDKDKDNVAPRTKVGPQGY [SEQ ID NO: 368]	0.997
GCRFGTCTVQRLAHQIYQFTDKDKDNVAPRTNIGPNGY [SEQ ID NO: 381]	7.61
GCRFGTCTVQRLAHFLYQFTDKDKDNVAPRTKVGPQGY [SEQ ID NO: 369]	2.48
GCRFATCTVQRLAHFLYQFTDKDKDNVAPRTKVGPQGY [SEQ ID NO: 377]	0.243
{C20 diacid-γGlu}-GCRFATCTVQRLAHQIYQFTDKDKDNVAPRTKVGPQGY-NH2 (disulfide 2-7 (inferred); ends not checked) [SEQ ID NO: 380]	0.162
{C20 diacid-γGlu}-KCNTATCTVNRLAHQIYQFTDKDKDNVAPPTNVGSNG[Hyp]-NH2 (disulfide 2-7 (inferred); ends not checked) [SEQ ID NO: 38]	> 5000
